Target: the molecule itself
Experiment: ITC

B1: HIV-1 capsid CTD CTD (protein)
chain: not shown
  Kd: ~15 µM

— publication PMC3097154 (2011)
